One may read the Km as the substrate concentration at which the rate is half of its maximum. For orientation: kcat means the maximal rate divided by the concentration of active sites.

These results are taken from article PMC10885436, “A novel AA14 LPMO from Talaromyces rugulosus with bifunctional cellulolytic/hemicellulolytic activity boosted cellulose hydrolysis” (Biotechnology for Biofuels and Bioproducts, 2024).

Substrate in this series: COc1cccc(OC)c1O
As to the kind of experiment: purified protein. In kind it is biochemical, Talaromyces rugulosus. Conditions: co-substrate H2O2 fixed at 100 uM (below its Km, authors call kinetics insufficient), Cu(II)-saturated enzyme, 100 mM sodium phosphate pH 7.0, 37 C.

B1: TrAA14A (Talaromyces rugulosus) (protein)
chain: HVVAWHPGMYCLGGNDTSVDDPNTNLAVNPLWDLPKSKWWFQADRGCDKAPPVDGVFLELPAGQNFTTELAHNRAQTTLSFNGQYAGEWPDGKDHPEDWSGTGTPPGCIQDDGAIHTNNQTMAGGTVFAISYQSDMSQVTMENLVVFSVLEHTPWKRIATYEVPADLPPCPDAGCICAWGWVPQGCGEPNMYMAGYKCKVTGSSSTKQLAQAQVPKYCANDTSECVGGAKQILVMNQADGNNVVAPDNDFVAYNEKWGFQNGAQNDIFM
notes: about 60 kDa glycosylated, about 30 kDa after Endo H; no dCTR
Consider B1, for which the Michaelis constant (Km) turned out to be 790 µM and the kcat worked out at 1.32 s⁻¹.
